# From patent CN115368461A (JIANGSU HENGRUI MEDICINE CO; SHANGHAI HENGRUI …, dated 2022)
# T1: 人TROP2-his (huTROP2-His), ACRO TR2-H5223 (human, UniProt P09758 27-274)
# T1 construct: Bought His-tagged human TROP2 protein (ACRO)
# T1 sequence: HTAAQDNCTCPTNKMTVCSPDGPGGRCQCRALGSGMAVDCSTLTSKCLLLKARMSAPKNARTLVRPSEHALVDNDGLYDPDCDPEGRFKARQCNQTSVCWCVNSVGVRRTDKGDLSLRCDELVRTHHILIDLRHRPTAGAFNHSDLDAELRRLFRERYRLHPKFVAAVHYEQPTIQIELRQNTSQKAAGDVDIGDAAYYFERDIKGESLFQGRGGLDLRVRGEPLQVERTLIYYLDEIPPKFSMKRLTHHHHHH
# T2: CHO细胞表面表达的人TROP2 (huTROP-2 CHO-K1 cells) (human, UniProt P09758 27-323)
# T2 construct: Untagged human TROP2 stably expressed on CHO-K1 cells; The cells were fixed with paraformaldehyde in the cell ELISA; also called CHO-K1/hTROP2
# T2 sequence: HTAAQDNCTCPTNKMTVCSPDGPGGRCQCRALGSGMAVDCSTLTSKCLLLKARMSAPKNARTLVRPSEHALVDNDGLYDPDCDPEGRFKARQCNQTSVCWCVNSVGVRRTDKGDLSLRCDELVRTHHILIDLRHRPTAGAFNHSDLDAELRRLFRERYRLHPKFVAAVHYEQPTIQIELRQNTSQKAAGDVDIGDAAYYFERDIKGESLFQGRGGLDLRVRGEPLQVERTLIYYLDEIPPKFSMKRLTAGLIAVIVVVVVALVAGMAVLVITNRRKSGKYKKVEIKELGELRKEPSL
# T3: TROP2 on FaDu cells (high huTROP2 expression) and SK-OV-3 cells (low TROP2 expression) (human, UniProt P09758 27-323)
# T3 sequence (looked up): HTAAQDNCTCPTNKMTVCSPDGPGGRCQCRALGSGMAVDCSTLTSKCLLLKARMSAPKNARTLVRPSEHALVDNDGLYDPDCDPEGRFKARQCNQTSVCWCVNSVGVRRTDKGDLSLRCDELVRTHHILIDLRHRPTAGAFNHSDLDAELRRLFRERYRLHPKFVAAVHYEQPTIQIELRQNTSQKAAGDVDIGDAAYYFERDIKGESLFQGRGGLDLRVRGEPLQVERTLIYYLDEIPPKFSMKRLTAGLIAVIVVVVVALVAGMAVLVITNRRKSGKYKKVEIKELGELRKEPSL
# Experiments:
# [1] = target: T1, 人TROP2-his (huTROP2-His), ACRO TR2-H5223; assay: ForteBio Octet BLI; antibody on Protein A sensor, 100nM antigen
# [2] = target: T2, CHO细胞表面表达的人TROP2 (huTROP-2 CHO-K1 cells); assay: cell ELISA on fixed huTROP-2 CHO-K1 cells
# [3] = target: T1, 人TROP2-his (huTROP2-His), ACRO TR2-H5223; assay: Biacore T200 SPR; antibody captured on Protein A chip, huTROP2-his as analyte, 1:1 model
# [4] = target: T3, TROP2 on FaDu cells (high huTROP2 …); assay: cell-based or functional assay
Binder,binding result [1],binding result [2],Kd [3] [pM],"IC50(nM), DT3C内吞杀伤实验 on FaDu cells [4] [nM]","Imax(%), DT3C内吞杀伤实验 on FaDu cells [4] [%]"
"mAb29 (antibody, V domains shown, Murine hybridoma monoclonal antibody; the murine constant regions are not; In the cell ELISA it was detected with goat anti-mouse IgG-HRP; also called 鼠源mAb29; 鼠源抗体mAb29) VH: EVKLVESGGDLVQPGGSLKLSCAASGFSFSDYYMYWVRQTPEKRLEWVANIDNGGDTTYYPDTVKGRFTISRDNAKNTLYLQMSRLKSEDTAMYYCARHDPLTGPPFFAMDYWGQGTSVTVSS VL: DIQMTQSPSSLSASLGGKVTISCKASQGINQYIAWYQLKPGKGPRLLIHYTSTLQPGVPSRFSGSGSGRDYSFSISNLEPEDIASYYCLQYDNLWTFGGGTKLEIK",binds,binds,,,
"hu53-02 (antibody, human IgG1, kappa, V domains shown, also called mAb53 VH1 + VL2) VH: EVQLVQSGAEVKKPGASVKVSCKASGYTFTSYWITWVRQAPGQGLEWMGNIHPGSSTTNYNEKFKSRVTMTRDTSTSTVYMELSSLRSEDTAVYYCAREVGDYWGQGTTVTVSS VL: EIVLTQSPATLSLSPGERATLSCRASQIIGTSIHWYQQKPGQAPRLLIKYVSESISGIPARFSGSGSGTDFTLTISSLEPEDFAVYYCQQSHSWPFTFGGGTKVEIKR",,,691,0.0643,97.5
"mAb53 (antibody, V domains shown, Murine hybridoma monoclonal antibody; the murine constant regions are not; also called 鼠源mAb53; 鼠源抗体mAb53) VH: QVQLQQPGAELVKPGASVKMSCKASGYTFTSYWITWVKQRPGQGLEWIGNIHPGSSTTNYNEKFKSKATLTVHTSSSTVYMQLTSLTSEDSAVYYCAREVGDYWGQGTSVTVSS VL: DILLTQSPAILSVSPGERASFSCRASQIIGTSIHWYQQRTNGSPRLLIKYVSESISGIPSRFSGSGSGTDFTLSINSVESEDIADYYCQQSHSWPFTFGGGTKL",binds,binds,,,

# The remaining lines, values ahead:
binding result [1],binding result [2],Kd [3] [pM],"IC50(nM), DT3C内吞杀伤实验 on FaDu cells [4] [nM]","Imax(%), DT3C内吞杀伤实验 on FaDu cells [4] [%]",Binder
,,,0.069,97.7,"hRS7 (antibody, human IgG1, kappa, V domains shown) VH: QVQLQQSGSELKKPGASVKVSCKASGYTFTNYGMNWVKQAPGQGLKWMGWINTYTGEPTYTDDFKGRFAFSLDTSVSTAYLQISSLKADDTAVYFCARGGFGSSYWYFDVWGQGSLVTVSS VL: DIQLTQSPSSLSASVGDRVSITCKASQDVSIAVAWYQQKPGKAPKLLIYSASYRYTGVPDRFSGSGSGTDFTLTISSLQPEDFAVYYCQQHYITPLTFGAGTKVEIKR"
,,17000,,,"TINA (antibody, human IgG1, kappa, V domains shown, Control antibody built according to WO2015098099A1; also called TINA抗体; 阳性对照抗体TINA) VH: QVQLVQSGAEVKKPGASVKVSCKASGYTFTTAGMQWVRQAPGQGLEWMGWINTHSGVPKYAEDFKGRVTISADTSTSTAYLQLSSLKSEDTAVYYCARSGFGSSYWYFDVWGQGTLVTVSS VL: DIQMTQSPSSLSASVGDRVTITCKASQDVSTAVAWYQQKPGKAPKLLIYSASYRYTGVPSRFSGSGSGTDFTLTISSLQPEDFAVYYCQQHYITPLTFGQGTKLEIKR"
,,202,0.0094,100,"hu29-12 (antibody, human IgG1, kappa, V domains shown, also called mAb29 VH4 + VL3) VH: EVKLVESGGGLVQPGGSLRLSCAASGFSFSDYYMYWVRQAPGKGLEWVANIDNVGDTTYYPDTVKGRFTISRDNAKNSLYLQMNSLRAEDTAVYYCARHDPLTGPPFFAMDYWGQGTTVTVSS VL: DIQMTQSPSSLSASVGDRVTITCKASQGINQYIAWYQQKPGKGPKLLIHYTSTLQPGVPSRFSGSGSGRDYTFTISSLQPEDIATYYCLQYDNLWTFGGGTKVEIKR"
